In article doi:10.1101/380220 (bioRxiv, 2019):
Read-outs that look alike come from different tables or passages of the source.

Assays:
[1] = target: T1, GTP-loaded Ras1.G17V (1-172) (fission yeast (Schizosaccharomyces …, UniProt P08647 1-172, G17V)); assay: pull-down
T1 sequence (looked up): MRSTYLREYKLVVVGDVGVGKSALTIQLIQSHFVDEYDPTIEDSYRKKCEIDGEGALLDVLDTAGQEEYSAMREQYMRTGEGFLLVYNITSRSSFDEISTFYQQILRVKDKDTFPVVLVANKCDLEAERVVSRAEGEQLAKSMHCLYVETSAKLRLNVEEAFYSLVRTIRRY

[2] = target: T1, GTP-loaded Ras1.G17V (1-172); assay: pull-down; remark: listed apart in the source

B1: GST-Byr2 (65-180) (domain or fragment, UniProt P28829 65-180, looked up)
chain: REFPRPCILRFIACNGQTRAVQSRGDYQKTLAIALKKFSLEDASKFIVCVSQSSRIKLITEEEFKQICFNSSSPERDRLIIVPKEKPCPSFEDLRRSWEIELAQPAALSSQSSLSP
- binding result [1]: binds

B2: GST-Scd1 (760-872) (domain or fragment, UniProt P40995 760-872, looked up)
chain: SSSTSTSLSVRNTTNVKIRLRLHEVSLVLVVAHDITFDELLAKVEHKIKLCGILKQAVPFRVRLKYVDEDGDFITITSDEDVLMAFETCTFELMDPVHNKGMDTVSLHVVVYF
- binding result [1]: binds

B3: Scd1 (760-872) fragment (domain or fragment, UniProt P40995 760-872, looked up)
chain: SSSTSTSLSVRNTTNVKIRLRLHEVSLVLVVAHDITFDELLAKVEHKIKLCGILKQAVPFRVRLKYVDEDGDFITITSDEDVLMAFETCTFELMDPVHNKGMDTVSLHVVVYF
- binding result [2]: binds
